Measured values taken from the supplement of paper PMC9170038.

What was measured:
MS2 coat protein [1] = assay: apparent KD of MS2 coat protein, switch ON state; designed switch direction (-1 OFF switch, 1 ON switch): -1; higher = weaker reporter binding; conditions: FMN input: 0 or 200 uM; Eterna round: R93 (includes R88 designs)
Procedure, shortened: (§1)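 Apparent KD stands for the median, per design, of fits to normalised cluster binding curves. The curves came from titrating on-chip-transcribed RNA switches on Illumina sequencing clusters with SNAP-549-labelled MS2 coat protein, twofold from 0.7 or 1.5 nM to 3 µM. Buffer was 100 mM Tris-HCl pH 7.5, 80 mM KCl, 4 mM MgCl2, without or with constant ligand.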

MS2 coat protein [2] = assay: apparent KD of MS2 coat protein, switch OFF state (with FMN for OFF switches, without FMN for ON switches); designed switch direction (-1 OFF switch, 1 ON switch): -1; higher = weaker reporter binding; conditions: FMN input: 0 or 200 uM; Eterna round: R93 (includes R88 designs)
Procedure, shortened: as §1

| Sequence | apparent KD of MS2 coat protein (MS2 coat protein [1]) [µM] | apparent KD of MS2 coat protein (MS2 coat protein [2]) [µM] |
| --- | --- | --- |
| ACUAAUGAAGGAUAUACAAACAACAAACACUCAACACACACACAUGAGGAUCACCCAUGUAGAAGGUCAAACAU [JR_Exc002_Sub1204] | 0.0192 | 0.0182 |
| AGAAAACAUGAGGAUCACCCAUGUGAGGAUAUCGAUGUCCAAGACCUGGUGCGGGACUCGAGAAGGCACUGGGA [salish99-ex1-92] | 0.0414 | 0.0448 |
| AGAAAACAUGAGGAUCACCCAUGUGAGGAUAUGCGAAAAGAAAGAAAAUAAAAUAAAAGCAGAAGGUACAAAUA | 0.0299 | 0.0313 |
| AGAAACCUAGGAUAUACAUGAGGAUCACCCAUGUAAAGAAAGAGGAGAGCCACAAGAAGUAGAAGGAGGAAGAA [JR_Exc003_Sub006] | 0.0227 | 0.0349 |
| AGAAAGUCAGGAUAUACAGAUAAAAAAACGAAAAAAAAUCUGUAGAAGGGACAUGAGGAUCACCCAUGUAAAGA [Mat - Exclusion 4 - Mayanna - D102] | 0.0494 | 0.0392 |
| AGAAAGUCAGGAUAUACGAAUAAGAAUAAAGACGAGAACGGACAUGAGGAUCACCCAUGUAGAAGGGACAAGAA [Diamond 16] | 0.0516 | 0.0218 |
| AGAAAGUCAGGAUAUAUAGGAAAAAUAAAAAAAAUAAAACUAUAGAAGGGACAUGAGGAUCACCCAUGUUAAGA [Mat - Exclusion 4 - Mayanna - D133] | 0.034 | 0.0178 |
| AGAAAGUCAGGAUAUGCAGACAAAGCAAAAAAGCAAUGUCUGCAGAAGGGACAUGAGGAUCACCCAUGUAAAGA [Mat - Exclusion 4 - Mayanna - D117] | 0.0503 | 0.0475 |
| AGAAAGUGAGGAUAUACAUGAGGAUCACCCAUGUAGAACGAGAGUUAUAAAAAUGGAAGUAGAAGGCACAAAAG [Meechl MS2 Ex3] | 0.0283 | 0.0328 |
| AGAAAUACAGGAUAUACAUGGGAAAAAAAAAAAAAAAUUCUACAUGAGGAUCACCCAUGUAGAAGGGUAUUUCA [Ex2 Design 170: Random 1] | 0.0482 | 0.032 |
| AGAUGACAAGGAUAUACUAGGGAUGCUAGUCGAGAAGAAGAACAUGAGGAUCACCCAUGUAGAAGGUGUAAGAA [JR_Exc002_Sub1703] | 0.0354 | 0.0338 |
| AGCAAACAUGAGGAUCACCCAUGUUAGGAUAUGAACGAAAAUAAAUAAAAAUAAAAGUUCAGAAGGGACGAGCA [66%, Wbt, 28] | 0.0281 | 0.0377 |
| AGCAAGAGAGGAUAUACAUAGGAAAAAAAAGUCAGAUCCCUACAUGAGGAUCACCCAUGUAGAAGGCUCUGGCA [Ex2 Design 154: Sub-opt 18] | 0.0151 | 0.0122 |
| AGCAAGUAAGGAUAUGCAAAGUCAGGACACACACUGACGAAGCAGAAGGUACAUGAGGAUCACCCAUGUAAGCA [Mat - Exaclusion 4 - Eli mod - D61] | 0.0256 | 0.018 |
| AGCAAGUCAGGAUAUACGAACAAGACAAAAGACGUGAAGGGACAUGAGGAUCACCCAUGUAGAAGGGACUAGCA [74%, Web mod - With 3 less U's] | 0.0598 | 0.0617 |
| AGCAAGUUAGGAUAUGCAAAGUCAGGACACACACUGACGAAGCAGAAGGAACAUGAGGAUCACCCAUGUAAGCA [Mat - Exaclusion 4 - Eli mod - D63] | 0.0235 | 0.0171 |
| AGCACGUCAGGAUAUACGAAAAAAAAGGGUAAAAAAAAGGGACAUGAGGAUCACCCAUGUAGAAGGGACAAGCA [Diamond 93] | 0.147 | 0.172 |
| AGCACGUCAGGAUAUACGAACAAAACGGGAGAACUAAAGGGACAUGAGGAUCACCCAUGUAGAAGGGACAAGCA [Diamond 91] | 0.0856 | 0.0911 |
| AGCAGUACAGGAUAUACAUGAGGAUCACCCAUGUGAAAAGAAAGUGGCGUACCACAAAGUAGAAGGGUACUGCA [Mat - Exclusion 3 - JL mod - D33] | 0.0279 | 0.18 |
| AGCUAGUCAGGAUAUACAAAAAUGAUAGAAGACGUAAGGGAACAUGAGGAUCACCCAUGUAGAAGGGACUAGCA [Diamond 44] | 0.041 | 0.129 |
